Measurements: patent publication US20090098103A1

How the values were obtained:
[1] = molecular target: Human Recombinant TFPI (R&D Systems) (human) (UniProt P10646); test: SPR (Biacore T100), TFPI on CM5 chip, 320 nM FVIIa + 620 nM sTF; 293-F cells
[2] = molecular target: Human Recombinant TFPI (R&D Systems) (human) (UniProt P10646); test: SPR (Biacore T100), TFPI on CM5 chip, 320 nM FVIIa + 620 nM sTF; BHK-21 cells

UniProt P10646, sequence (P10646 29-282): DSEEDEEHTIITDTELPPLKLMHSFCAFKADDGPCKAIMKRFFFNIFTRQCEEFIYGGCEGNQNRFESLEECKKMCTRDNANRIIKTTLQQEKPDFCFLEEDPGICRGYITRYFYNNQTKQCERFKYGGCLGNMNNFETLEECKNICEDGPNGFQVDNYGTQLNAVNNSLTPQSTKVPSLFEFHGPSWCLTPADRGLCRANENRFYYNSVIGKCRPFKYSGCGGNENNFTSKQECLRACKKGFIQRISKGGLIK

Substance | Binding (wt/variant) [1] | Dissociation (wt/variant) [1] | Binding (wt/variant) [2] | Dissociation (wt/variant) [2]
FVIIa variant CB558 K197E (from UniProt P08709 61-466) (enzyme) | 1.4 | 1.3 | – | –
FVIIa variant CB563 K199E (from UniProt P08709 61-466) (enzyme) | 1.4 | 1.4 | – | –
FVIIa variant CB592 M298Q (from UniProt P08709 61-466) (enzyme) | 1.9 | 1.8 | – | –
FVIIa variant CB593 V158D/E296V/M298Q (from UniProt P08709 61-466) (enzyme) | 0.8 | 0.8 | 1 | 1
FVIIa variant CB608 G237V (from UniProt P08709 61-466) (enzyme) | 2.2 | 1.8 | – | –
FVIIa variant CB609 K341Q (from UniProt P08709 61-466) (enzyme) | – | 19.7 | – | –
FVIIa variant CB637 K197E/K341Q (from UniProt P08709 61-466) (enzyme) | 67.2 | 171 | – | –
FVIIa variant CB670 G237V/K341Q (from UniProt P08709 61-466) (enzyme) | 12.8 | 12.4 | – | –
FVIIa variant CB671 K197E/G237V/K341Q (from UniProt P08709 61-466) (enzyme) | 18.9 | 21.8 | – | –
FVIIa variant CB688 K197E/K199E (from UniProt P08709 61-466) (enzyme) | 2.2 | 2.1 | – | –
FVIIa variant CB689 K197E/G237V (from UniProt P08709 61-466) (enzyme) | 1.8 | 1.6 | – | –
FVIIa variant CB691 K197E/K199E/K341Q (from UniProt P08709 61-466) (enzyme) | 33.9 | 68.1 | – | –
FVIIa variant CB692 K197E/G237V/M298Q/K341Q (from UniProt P08709 61-466) (enzyme) | 15.9 | 21.5 | – | –
FVIIa variant CB693 K197E/K199E/G237V/M298Q/K341Q (from UniProt P08709 61-466) (enzyme) | 23.4 | 43.5 | – | –
FVIIa variant CB694 K199E/K341Q (from UniProt P08709 61-466) (enzyme) | 18.8 | 30.7 | – | –
FVIIa variant CB695 G237V/M298Q (from UniProt P08709 61-466) (enzyme) | 0.9 | 0.8 | – | –
FVIIa variant CB696 G237V/M298Q/K341Q (from UniProt P08709 61-466) (enzyme) | 4.5 | 6 | – | –
FVIIa variant CB697 R290N (from UniProt P08709 61-466) (enzyme) | 1.6 | 1.5 | – | –
FVIIa variant CB698 R290Q (from UniProt P08709 61-466) (enzyme) | 1.3 | 1.2 | – | –
FVIIa variant CB699 R290K (from UniProt P08709 61-466) (enzyme) | 0.7 | 0.7 | – | –

Substance | Binding (wt/variant) [1] | Dissociation (wt/variant) [1] | Binding (wt/variant) [2] | Dissociation (wt/variant) [2]
FVIIa variant CB700 R290M (from UniProt P08709 61-466) (enzyme) | 1.1 | 1.1 | – | –
FVIIa variant CB701 R290V (from UniProt P08709 61-466) (enzyme) | 2.6 | 2.7 | – | –
FVIIa variant CB733 K341N (from UniProt P08709 61-466) (enzyme) | 11.3 | 63.8 | – | –
FVIIa variant CB734 K341M (from UniProt P08709 61-466) (enzyme) | 4.9 | 5.4 | – | –
FVIIa variant CB735 K341D (from UniProt P08709 61-466) (enzyme) | 186 | 381 | – | –
FVIIa variant CB853 G237T238insA (from UniProt P08709 61-466) (enzyme) | – | – | 6.5 | 18.2
FVIIa variant CB854 G237T238insS (from UniProt P08709 61-466) (enzyme) | – | – | 5.2 | –
FVIIa variant CB855 G237T238insV (from UniProt P08709 61-466) (enzyme) | – | – | 7.3 | 16.8
FVIIa variant CB856 G237T238insAS (from UniProt P08709 61-466) (enzyme) | – | – | 22.8 | 154
FVIIa variant CB857 G237T238insSA (from UniProt P08709 61-466) (enzyme) | – | – | 21.5 | 146
FVIIa variant CB858 D196K197insK (from UniProt P08709 61-466) (enzyme) | – | – | 1 | 0.8
FVIIa variant CB859 D196K197insR (from UniProt P08709 61-466) (enzyme) | – | – | 0.5 | 0.5
FVIIa variant CB862 D196K197insA (from UniProt P08709 61-466) (enzyme) | – | – | 0.5 | 0.4
FVIIa variant CB863 D196K197insM (from UniProt P08709 61-466) (enzyme) | – | – | 0.4 | 0.4
FVIIa variant CB864 K197I198insE (from UniProt P08709 61-466) (enzyme) | – | – | 1.3 | 1.1
FVIIa variant CB865 K197I198insY (from UniProt P08709 61-466) (enzyme) | – | – | 1.1 | 1
FVIIa variant CB867 K197I198insS (from UniProt P08709 61-466) (enzyme) | – | – | 0.7 | 0.6
FVIIa variant CB902 K197E/M298Q (from UniProt P08709 61-466) (enzyme) | 2.6 | 2.3 | – | –
FVIIa variant CB945 M298Q/K341D (from UniProt P08709 61-466) (enzyme) | 147 | 196 | – | –
wild-type Factor VII polypeptide (CB553-02), activated (FVIIa) (from UniProt P08709 61-466) (enzyme) | 1 | 1 | 1 | 1
